Patent publication US20200270588A1, “GLUCOSYL TRANSFERASE POLYPEPTIDES AND METHODS OF USE” (Syngenta Participations AG, priority 2017, published 2020)

Test: UDP luminescence plate assay of E. coli extracts, mutants of SEQ ID No: 1, 2 mM metribuzin
Assay type: biochemical, Zea mays
Details: for luminescence signal with metribuzin: H24A null background 1.00E+05 not subtracted; for SIGNAL: metribuzin signal of mutant divided by the signal of w/t bx9: relative to bx9 w/t; for luminescence signal in the DMSO control: mutants of SEQ ID No: 1, DMSO in place of metribuzin (background UDP-glucose hydrolysis); for luminescence signal observed with 2 mM metribuzin: mutants of SEQ ID No: 1 in E. coli extracts, UDP luminescence
Description: Optionally plate assays are stopped with brief heating to 95 C before returning to ice and addition of UDP-Glo detection reagent followed by incubation at lab temperature. […] In addition a UDP standard curve is run alongside each set of plate tests.
Assays were carried out on extracts of E. coli BL21 DE3 expressing the various C-terminally his-tagged library variants of SEQ ID NO:1 at the amino acid positions listed in Table 11 as described in Example 2 except, in this case, with 2 mM metribuzin in place of herbicide V.
Thus the ratio of the metribuzin to DMSO signal as well as the increase in signal relative to the w/t bx9 is used to help distinguish those mutations most likely to offer the highest activity to metribuzin. A follow up assay monitored by, for example, LC MS is one method to distinguish these cases more quantitatively.

B1: bx9 w/t: wild type Zea mays bx9 glucosyl transferase, C-terminally his-tagged SEQ ID NO: 1 (protein)
chain: MASSRTGAGAGGRVVVFPFPFQGHFNPVMRLARALHARGLAITVFHSGALDPADYPADYRFVPVTVEADPKLLASEDIAAIVTTLNASCDAPFRARLSALLAAEGRDSVRCVFTDVSWNAVLTASSDLGVPALGMMTASAASLRDYMAYRTLIDKGYLPVKEERKEDPVPELPPYLVKDLLRVDTSDLEEFAELLARTVTAARRASGLIFNTFPLIETDTLAEIHKALSVPVFAVAPLNKLVPTATASLHGVVQADRGCLQWLDTQQPGSVLYVSFGSMAAMDPHEFVELAWGLADSKRPFVWVVRPNLIRGFESGALPDGVEDEVRGRGIVVAWAPQEEVLAHPAVGGFLTHNGWNSTVEAISEGVPMVCCPRHGDQFGNMRYVCDVWKVGTELVGEQLERGQVKAAIDRLFGTKEGEEIKERMKEFKIAAAKGIGIGVDVDETASPRTDLTDLVDLIKSF
modifications: C-terminal His tag; Zea mays
For B1, the “SIGNAL: metribuzin signal of mutant divided by metribuzin signal of w/t bx9” value (2 mM metribuzin) was 1.00, the UDP-Glo luminescence signal (2 mM metribuzin, 5 ul diluted extract, 40 minutes, DMSO control ~2.3E6, H24A ~1.7E6) was ~3.4 E6 and the “luminescence signal with metribuzin” value (2 mM metribuzin) was 1.23E+05. The “SIGNAL: metribuzin signal of mutant divided by the signal of w/t bx9” value (2 mM metribuzin) was 1.00, the “luminescence signal in the DMSO control” value was 2.76E+05 and the “luminescence signal observed with 2 mM metribuzin” value (2 mM metribuzin) was 2.80E+05.

B2: A432L: bx9 SEQ ID NO:1 mutant (protein)
chain: MASSRTGAGAGGRVVVFPFPFQGHFNPVMRLARALHARGLAITVFHSGALDPADYPADYRFVPVTVEADPKLLASEDIAAIVTTLNASCDAPFRARLSALLAAEGRDSVRCVFTDVSWNAVLTASSDLGVPALGMMTASAASLRDYMAYRTLIDKGYLPVKEERKEDPVPELPPYLVKDLLRVDTSDLEEFAELLARTVTAARRASGLIFNTFPLIETDTLAEIHKALSVPVFAVAPLNKLVPTATASLHGVVQADRGCLQWLDTQQPGSVLYVSFGSMAAMDPHEFVELAWGLADSKRPFVWVVRPNLIRGFESGALPDGVEDEVRGRGIVVAWAPQEEVLAHPAVGGFLTHNGWNSTVEAISEGVPMVCCPRHGDQFGNMRYVCDVWKVGTELVGEQLERGQVKAAIDRLFGTKEGEEIKERMKEFKIALAKGIGIGVDVDETASPRTDLTDLVDLIKSF
modifications: Zea mays
For B2, the “factor of increased signal relative to the bx9 w/t control signal (first parentheses)” value (2 mM metribuzin) was 6 and the “ratio of activity with metribuzin relative to activity with DMSO (second parentheses)” value (2 mM metribuzin) was 1.30.

B3: M279W, H375Y: mutant combination of bx9 SEQ ID NO:1 (protein)
chain: MASSRTGAGAGGRVVVFPFPFQGHFNPVMRLARALHARGLAITVFHSGALDPADYPADYRFVPVTVEADPKLLASEDIAAIVTTLNASCDAPFRARLSALLAAEGRDSVRCVFTDVSWNAVLTASSDLGVPALGMMTASAASLRDYMAYRTLIDKGYLPVKEERKEDPVPELPPYLVKDLLRVDTSDLEEFAELLARTVTAARRASGLIFNTFPLIETDTLAEIHKALSVPVFAVAPLNKLVPTATASLHGVVQADRGCLQWLDTQQPGSVLYVSFGSWAAMDPHEFVELAWGLADSKRPFVWVVRPNLIRGFESGALPDGVEDEVRGRGIVVAWAPQEEVLAHPAVGGFLTHNGWNSTVEAISEGVPMVCCPRYGDQFGNMRYVCDVWKVGTELVGEQLERGQVKAAIDRLFGTKEGEEIKERMKEFKIAAAKGIGIGVDVDETASPRTDLTDLVDLIKSF
modifications: Zea mays
With B3 the “factor of increased signal relative to the bx9 w/t control signal (first parentheses)” value (2 mM metribuzin) was 4.0 and the “ratio of activity with metribuzin relative to activity with DMSO (second parentheses)” value (2 mM metribuzin) was 5.0.

B4: M279F, H375F: mutant combination of bx9 SEQ ID NO:1 (protein)
chain: MASSRTGAGAGGRVVVFPFPFQGHFNPVMRLARALHARGLAITVFHSGALDPADYPADYRFVPVTVEADPKLLASEDIAAIVTTLNASCDAPFRARLSALLAAEGRDSVRCVFTDVSWNAVLTASSDLGVPALGMMTASAASLRDYMAYRTLIDKGYLPVKEERKEDPVPELPPYLVKDLLRVDTSDLEEFAELLARTVTAARRASGLIFNTFPLIETDTLAEIHKALSVPVFAVAPLNKLVPTATASLHGVVQADRGCLQWLDTQQPGSVLYVSFGSFAAMDPHEFVELAWGLADSKRPFVWVVRPNLIRGFESGALPDGVEDEVRGRGIVVAWAPQEEVLAHPAVGGFLTHNGWNSTVEAISEGVPMVCCPRFGDQFGNMRYVCDVWKVGTELVGEQLERGQVKAAIDRLFGTKEGEEIKERMKEFKIAAAKGIGIGVDVDETASPRTDLTDLVDLIKSF
modifications: Zea mays
With B4 the “factor of increased signal relative to the bx9 w/t control signal (first parentheses)” value (2 mM metribuzin) was 5.0 and the “ratio of activity with metribuzin relative to activity with DMSO (second parentheses)” value (2 mM metribuzin) was 4.0.

B5: S117G: bx9 SEQ ID NO:1 mutant (protein)
chain: MASSRTGAGAGGRVVVFPFPFQGHFNPVMRLARALHARGLAITVFHSGALDPADYPADYRFVPVTVEADPKLLASEDIAAIVTTLNASCDAPFRARLSALLAAEGRDSVRCVFTDVGWNAVLTASSDLGVPALGMMTASAASLRDYMAYRTLIDKGYLPVKEERKEDPVPELPPYLVKDLLRVDTSDLEEFAELLARTVTAARRASGLIFNTFPLIETDTLAEIHKALSVPVFAVAPLNKLVPTATASLHGVVQADRGCLQWLDTQQPGSVLYVSFGSMAAMDPHEFVELAWGLADSKRPFVWVVRPNLIRGFESGALPDGVEDEVRGRGIVVAWAPQEEVLAHPAVGGFLTHNGWNSTVEAISEGVPMVCCPRHGDQFGNMRYVCDVWKVGTELVGEQLERGQVKAAIDRLFGTKEGEEIKERMKEFKIAAAKGIGIGVDVDETASPRTDLTDLVDLIKSF
modifications: Zea mays
For B5, the “SIGNAL: metribuzin signal of mutant divided by metribuzin signal of w/t bx9” value (2 mM metribuzin) was 1.26, the “luminescence signal with metribuzin” value (2 mM metribuzin) was 1.56E+05 and the “SIGNAL: metribuzin signal of mutant divided by the signal of w/t bx9” value (2 mM metribuzin) was 1.07. The “luminescence signal in the DMSO control” value was 2.41E+05 and the “luminescence signal observed with 2 mM metribuzin” value (2 mM metribuzin) was 3.00E+05.

B6: M279F, E339A, H375Y: mutant combination of bx9 SEQ ID NO:1 (protein)
chain: MASSRTGAGAGGRVVVFPFPFQGHFNPVMRLARALHARGLAITVFHSGALDPADYPADYRFVPVTVEADPKLLASEDIAAIVTTLNASCDAPFRARLSALLAAEGRDSVRCVFTDVSWNAVLTASSDLGVPALGMMTASAASLRDYMAYRTLIDKGYLPVKEERKEDPVPELPPYLVKDLLRVDTSDLEEFAELLARTVTAARRASGLIFNTFPLIETDTLAEIHKALSVPVFAVAPLNKLVPTATASLHGVVQADRGCLQWLDTQQPGSVLYVSFGSFAAMDPHEFVELAWGLADSKRPFVWVVRPNLIRGFESGALPDGVEDEVRGRGIVVAWAPQAEVLAHPAVGGFLTHNGWNSTVEAISEGVPMVCCPRYGDQFGNMRYVCDVWKVGTELVGEQLERGQVKAAIDRLFGTKEGEEIKERMKEFKIAAAKGIGIGVDVDETASPRTDLTDLVDLIKSF
modifications: Zea mays
In the case of B6, the “factor of increased signal relative to the bx9 w/t control signal (first parentheses)” value (2 mM metribuzin) is reported as 7.5 and the “ratio of activity with metribuzin relative to activity with DMSO (second parentheses)” value (2 mM metribuzin) is reported as 7.0.

B7: M279F, H375Y: mutant combination of bx9 SEQ ID NO:1 (protein)
chain: MASSRTGAGAGGRVVVFPFPFQGHFNPVMRLARALHARGLAITVFHSGALDPADYPADYRFVPVTVEADPKLLASEDIAAIVTTLNASCDAPFRARLSALLAAEGRDSVRCVFTDVSWNAVLTASSDLGVPALGMMTASAASLRDYMAYRTLIDKGYLPVKEERKEDPVPELPPYLVKDLLRVDTSDLEEFAELLARTVTAARRASGLIFNTFPLIETDTLAEIHKALSVPVFAVAPLNKLVPTATASLHGVVQADRGCLQWLDTQQPGSVLYVSFGSFAAMDPHEFVELAWGLADSKRPFVWVVRPNLIRGFESGALPDGVEDEVRGRGIVVAWAPQEEVLAHPAVGGFLTHNGWNSTVEAISEGVPMVCCPRYGDQFGNMRYVCDVWKVGTELVGEQLERGQVKAAIDRLFGTKEGEEIKERMKEFKIAAAKGIGIGVDVDETASPRTDLTDLVDLIKSF
modifications: Zea mays
For B7, the “factor of increased signal relative to the bx9 w/t control signal (first parentheses)” value (2 mM metribuzin) was 5.0 and the “ratio of activity with metribuzin relative to activity with DMSO (second parentheses)” value (2 mM metribuzin) was 6.0.

B8: S117G, M279W, E339V: mutant combination of bx9 SEQ ID NO:1 (protein)
chain: MASSRTGAGAGGRVVVFPFPFQGHFNPVMRLARALHARGLAITVFHSGALDPADYPADYRFVPVTVEADPKLLASEDIAAIVTTLNASCDAPFRARLSALLAAEGRDSVRCVFTDVGWNAVLTASSDLGVPALGMMTASAASLRDYMAYRTLIDKGYLPVKEERKEDPVPELPPYLVKDLLRVDTSDLEEFAELLARTVTAARRASGLIFNTFPLIETDTLAEIHKALSVPVFAVAPLNKLVPTATASLHGVVQADRGCLQWLDTQQPGSVLYVSFGSWAAMDPHEFVELAWGLADSKRPFVWVVRPNLIRGFESGALPDGVEDEVRGRGIVVAWAPQVEVLAHPAVGGFLTHNGWNSTVEAISEGVPMVCCPRHGDQFGNMRYVCDVWKVGTELVGEQLERGQVKAAIDRLFGTKEGEEIKERMKEFKIAAAKGIGIGVDVDETASPRTDLTDLVDLIKSF
modifications: Zea mays
For B8, the “factor of increased signal relative to the bx9 w/t control signal (first parentheses)” value (2 mM metribuzin) was 7.5 and the “ratio of activity with metribuzin relative to activity with DMSO (second parentheses)” value (2 mM metribuzin) was 5.0.

B9: S117G, M279W, E339A: mutant combination of bx9 SEQ ID NO:1 (protein)
chain: MASSRTGAGAGGRVVVFPFPFQGHFNPVMRLARALHARGLAITVFHSGALDPADYPADYRFVPVTVEADPKLLASEDIAAIVTTLNASCDAPFRARLSALLAAEGRDSVRCVFTDVGWNAVLTASSDLGVPALGMMTASAASLRDYMAYRTLIDKGYLPVKEERKEDPVPELPPYLVKDLLRVDTSDLEEFAELLARTVTAARRASGLIFNTFPLIETDTLAEIHKALSVPVFAVAPLNKLVPTATASLHGVVQADRGCLQWLDTQQPGSVLYVSFGSWAAMDPHEFVELAWGLADSKRPFVWVVRPNLIRGFESGALPDGVEDEVRGRGIVVAWAPQAEVLAHPAVGGFLTHNGWNSTVEAISEGVPMVCCPRHGDQFGNMRYVCDVWKVGTELVGEQLERGQVKAAIDRLFGTKEGEEIKERMKEFKIAAAKGIGIGVDVDETASPRTDLTDLVDLIKSF
modifications: Zea mays
With B9 the “factor of increased signal relative to the bx9 w/t control signal (first parentheses)” value (2 mM metribuzin) was 5.0 and the “ratio of activity with metribuzin relative to activity with DMSO (second parentheses)” value (2 mM metribuzin) was 6.5.
